B1: Phage-3541 (peptide)
peptide: ENLICKPAWMCVGF
notes: Tested as crude clonal phage supernatant
B2: Phage-3543 (peptide)
peptide: VTPQCVPMWMCTGF
notes: as for B1
B3: Phage-3567 (peptide)
peptide: DAMLCRPSWMCDGF
notes: Peptide-180 library clone, tested as clonal phage supernatant with the peptide fused to pIII of the bacteriophage
B4: Phage-3545 (peptide)
peptide: VVKACIPEWMCSGF
notes: as for B1
B5: Phage-3563 (peptide)
peptide: EHRICVPQWMCTGF
notes: as for B3
B6: Phage-3537 (peptide)
peptide: FEVACIPQWMCDGF
notes: as for B1
B7: Phage-3542 (peptide)
peptide: LYVKCSPEWMCIGF
notes: as for B1
B8: Phage-3568 (peptide)
peptide: PEAYCVPSWMCTGF
notes: as for B3
B9: Phage-3565 (peptide)
peptide: ELLKCVPQWMCTGF
notes: as for B3
B10: Phage-3535 (peptide)
peptide: LNAMCVPAWMCTGF
notes: as for B1
B11: Phage-3562 (peptide)
peptide: DDIRCEPIWMCTGF
notes: as for B3
B12: Phage-3538 (peptide)
peptide: IARTCVPAWMCSGF
notes: as for B1
B13: Phage-3566 (peptide)
peptide: VSTMCVPEWMCGGF
notes: as for B3
B14: Phage-3564 (peptide)
peptide: SPSYCVPKWMCVGF
notes: as for B3
B15: Phage-3570 (peptide)
peptide: VDKACTPAWMCTGF
notes: as for B3
B16: Phage-3536 (peptide)
peptide: LEMACRPMWMCQGL
notes: as for B1
B17: Phage-3569 (peptide)
peptide: VAQWCTPSWMCDGF
notes: as for B3
B18: Phage-3546 (peptide)
peptide: DARACVPEWMCYGF
notes: as for B1
B19: Phage-3539 (peptide)
peptide: DVRMCVPEWMCSGF
notes: as for B1
B20: Phage-3544 (peptide)
peptide: FLQACKPPWMCTGF
notes: as for B1
B21: Phage-3533 (peptide)
peptide: VERVCVPQWMCSGF
notes: as for B1
B22: Phage-3540 (peptide)
peptide: VKPMCVPEWMCSGL
notes: as for B1
B23: Phage-3534 (peptide)
peptide: ESVYCIPQWMCSGL
notes: as for B1

Legend:
[1] = target: T1, PSMA Fab (SEQ ID NOs: 19, 20); experiment: clonal phage ELISA, biotinylated PSMA Fab on neutravidin plate, anti-M13 HRP detection;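 further: crude clonal phage supernatants added to wells pretreated with blocking buffer either with or without PSMA antigen, bound phage read after washing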
T1 construct: also called Anti-PSMA Fab; 006 PSMA Fab
Description: (§1) Clonal phage were harvested as crude supernatants and screened via standard ELISAs. […] Prior to the addition of clonal phage. wells were incubated with blocking buffer and PSMA antigen or blocking buffer alone. Without washing or aspirating, clonal phage supernatants were then added to the wells and incubated for a short time. Wells were then washed followed by detection of bound phage using a horse radish conjugated anti-M13 antibody.

[2] = target: T1, PSMA Fab (SEQ ID NOs: 19, 20); experiment: clonal phage ELISA on captured PSMA Fab, wells pre-incubated with PSMA antigen as competitor
Description: as §1

Anti-PSMA Fab [3] = target: T2, Anti-PSMA Fab (biotinylated (site not stated)); experiment: clonal phage ELISA on biotinylated PSMA Fab captured on neutravidin plate, anti-M13 HRP detection
T2 construct: also called 006 PSMA Fab

Anti-PSMA Fab [4] = target: T2, Anti-PSMA Fab; experiment: clonal phage ELISA on captured PSMA Fab, wells pre-incubated with PSMA antigen as competitor, anti-M13 HRP detection;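 further: crude clonal phage supernatants added, with no intervening wash, to wells preincubated with PSMA antigen in blocking buffer, incubated briefly, then washed before detecting bound phage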
Description: as §1

PSMA Fab (006 PSMA Fab) [5] = target: T3, PSMA Fab (006 PSMA Fab); experiment: clonal phage ELISA on biotinylated PSMA Fab captured on neutravidin, anti-M13 HRP detection;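 further: crude clonal phage supernatants added to wells pretreated with PSMA antigen in blocking buffer or with blocking buffer only, then briefly incubated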
T3 construct: also called Anti-PSMA Fab
Description: as §1

PSMA Fab (006 PSMA Fab) [6] = target: T3, PSMA Fab (006 PSMA Fab); experiment: clonal phage ELISA on captured PSMA Fab, wells pre-incubated with PSMA antigen as competitor
Description: as §1

Binder | Phage binding ELISA signal, Anti-PSMA Fab [1] | Phage binding ELISA signal, Anti-PSMA Fab with PSMA antigen [2] | Phage binding ELISA signal, Anti-PSMA Fab (Anti-PSMA Fab [3]) | Phage binding ELISA signal, Anti-PSMA Fab with PSMA antigen (Anti-PSMA Fab [4]) | further results
B1 | 1.65 | 0.0738 |  |  | 
TERVCVPDWMCAGF (Clonal phage of the Peptide-180 library) [Phage-3547] |  |  | 1.65 | 0.0944 | 
B2 | 1.65 | 0.105 |  |  | 
MERWCIPVWMCQGL (Clonal phage of the Peptide-180 library) [Phage-3560] |  |  | 1.64 | 0.0734 | 
VVPLCVPMWMCSPM (Clonal phage of the Peptide-180 library) [Phage-3557] |  |  | 1.64 | 0.0867 | 
TPPFCIPKWMCQGF (Clonal phage of the Peptide-180 library) [Phage-3548] |  |  | 1.65 | 0.117 | 
B3 |  |  |  |  | Phage binding ELISA signal, Anti-PSMA Fab (PSMA Fab (006 PSMA Fab) [5]): 1.62; Phage binding ELISA signal, Anti-PSMA Fab in presence of PSMA (PSMA Fab (006 PSMA Fab) [6]): 0.0871
B4 | 1.65 | 0.125 |  |  | 
B5 |  |  |  |  | Phage binding ELISA signal, Anti-PSMA Fab (PSMA Fab (006 PSMA Fab) [5]): 1.64; Phage binding ELISA signal, Anti-PSMA Fab in presence of PSMA (PSMA Fab (006 PSMA Fab) [6]): 0.0676
B6 | 1.66 | 0.118 |  |  | 
B7 | 1.65 | 0.0709 |  |  | 
B8 |  |  |  |  | Phage binding ELISA signal, Anti-PSMA Fab (PSMA Fab (006 PSMA Fab) [5]): 1.62; Phage binding ELISA signal, Anti-PSMA Fab in presence of PSMA (PSMA Fab (006 PSMA Fab) [6]): 0.0764
VEPACVPLWMCFGL (Clonal phage of the Peptide-180 library) [Phage-3558] |  |  | 1.64 | 0.0619 | 
MNIMCRPVWMCTGL (Clonal phage of the Peptide-180 library) [Phage-3549] |  |  | 1.65 | 0.0993 | 
B9 |  |  |  |  | Phage binding ELISA signal, Anti-PSMA Fab (PSMA Fab (006 PSMA Fab) [5]): 1.63; Phage binding ELISA signal, Anti-PSMA Fab in presence of PSMA (PSMA Fab (006 PSMA Fab) [6]): 0.126
B10 | 1.66 | 0.0634 |  |  | 
LAVRCIPEWMCYGL (Clonal phage of the Peptide-180 library) [Phage-3555] |  |  | 1.64 | 0.0644 | 
B11 |  |  |  |  | Phage binding ELISA signal, Anti-PSMA Fab (PSMA Fab (006 PSMA Fab) [5]): 1.64; Phage binding ELISA signal, Anti-PSMA Fab in presence of PSMA (PSMA Fab (006 PSMA Fab) [6]): 0.0657
B12 | 1.65 | 0.102 |  |  | 

Binder | Phage binding ELISA signal, Anti-PSMA Fab [1] | Phage binding ELISA signal, Anti-PSMA Fab with PSMA antigen [2] | Phage binding ELISA signal, Anti-PSMA Fab (Anti-PSMA Fab [3]) | Phage binding ELISA signal, Anti-PSMA Fab with PSMA antigen (Anti-PSMA Fab [4]) | further results
B13 |  |  |  |  | Phage binding ELISA signal, Anti-PSMA Fab (PSMA Fab (006 PSMA Fab) [5]): 1.63; Phage binding ELISA signal, Anti-PSMA Fab in presence of PSMA (PSMA Fab (006 PSMA Fab) [6]): 0.122
B14 |  |  |  |  | Phage binding ELISA signal, Anti-PSMA Fab (PSMA Fab (006 PSMA Fab) [5]): 1.64; Phage binding ELISA signal, Anti-PSMA Fab in presence of PSMA (PSMA Fab (006 PSMA Fab) [6]): 0.0712
B15 |  |  |  |  | Phage binding ELISA signal, Anti-PSMA Fab (PSMA Fab (006 PSMA Fab) [5]): 1.62; Phage binding ELISA signal, Anti-PSMA Fab in presence of PSMA (PSMA Fab (006 PSMA Fab) [6]): 0.0716
B16 | 1.66 | 0.0725 |  |  | 
B17 |  |  |  |  | Phage binding ELISA signal, Anti-PSMA Fab (PSMA Fab (006 PSMA Fab) [5]): 1.62; Phage binding ELISA signal, Anti-PSMA Fab in presence of PSMA (PSMA Fab (006 PSMA Fab) [6]): 0.0794
QSMMCIPSWMCVGF (Clonal phage of the Peptide-180 library) [Phage-3556] |  |  | 1.64 | 0.0679 | 
B18 | 1.65 | 0.0805 |  |  | 
B19 | 1.65 | 0.0753 |  |  | 
B20 | 1.65 | 0.146 |  |  | 
VDRLCVPNWMCMGL (Clonal phage of the Peptide-180 library) [Phage-3552] |  |  | 1.64 | 0.072 | 
VVNFCKPQWMCSGF (Clonal phage of the Peptide-180 library) [Phage-3561] |  |  | 1.64 | 0.0682 | 
B21 | 1.66 | 0.1 |  |  | 
MERMCVPSWMCTGF (Clonal phage of the Peptide-180 library) [Phage-3550] |  |  | 1.64 | 0.089 | 
B22 | 1.65 | 0.0907 |  |  | 
IEKVCVPAWMCMGF (Clonal phage of the Peptide-180 library) [Phage-3551] |  |  | 1.64 | 0.238 | 
AGMMCTPPWMCFGF (Clonal phage of the Peptide-180 library) [Phage-3554] |  |  | 1.64 | 0.0664 | 
TYFRCEPSWMCTGL (Clonal phage of the Peptide-180 library) [Phage-3559] |  |  | 1.64 | 0.073 | 
B23 | 1.66 | 0.0698 |  |  | 
